Tests used:
[1] = substrate: CCOc1ccc2nc3ccc(=O)cc-3oc2c1; test: Kinetic analysis, 7-ethoxyresorufin O-deethylase activity in Hepc/1A2.9; type: cell-based, human; settings: other: Hepc/1A2.9, Lineweaver-Burk plot, 37.0 °C
Protocol: (§1) After 1800 μl of methanol (Wako Junyaku K. K) was added to 300 μl of the reaction solution and insoluble material was removed by centrifugation, fluorescent intensity was measured at an excited wavelength of 550 nm and a fluorescence wavelength of 586 nm using a spectrofluorometer to quantify the resorufin formed. The product purchased from Molecular Probes was used as the standard substance for resorufin (Molecular Probes).

[2] = substrate: CCOc1ccc2nc3ccc(=O)cc-3oc2c1; test: Kinetic analysis, 7-ethoxyresorufin O-deethylase activity in Hepc/1A1.4; type: cell-based, human; settings: other: Hepc/1A1.4, Lineweaver-Burk plot, 37.0 °C
Protocol: as §1

[3] = substrate: O=[N+]([O-])c1ccc(O)cc1; test: Kinetic analysis, p-nitrophenol hydroxylase activity in Hepc/2E1.3-8; type: cell-based, human; settings: other: Hepc/2E1.3-8, Lineweaver-Burk plot, 37.0 °C
Excerpt: 4-Nitrocatechol purchased from Wako Junyaku K. K. was used as the standard substance.

[4] = substrate: CC(=O)O[C@H]1C(=O)[C@@]2(C)[C@H]([C@H](OC(=O)c3ccccc3)[C@]3(O)C[C@H](OC(=O)[C@H](O)[C@@H](NC(=O)c4ccccc4)c4ccccc4)C(C)=C1C3(C)C)[C@]1(OC(C)=O)CO[C@@H]1C[C@@H]2O

B1: CYP1A2 (Homo sapiens) (protein)
chain: MALSQSVPFSATELLLASAIFCLVFWVLKGLRPRVPKGLKSPPEPWGWPLLGHVLTLGKNPHLALSRMSQRYGDVLQIRIGSTPVLVLSRLDTIRQALVRQGDDFKGRPDLYTSTLITDGQSLTFSTDSGPVWAARRRLAQNALNTFSIASDPASSSSCYLEEHVSKEAKALISRLQELMAGPGHFDPYNQVVVSVANVIGAMCFGQHFPESSDEMLSLVKNTHEFVETASSGNPLDFFPILRYLPNPALQRFKAFNQRFLWFLQKTVQEHYQDFDKNSVRDITGALFKHSKKGPRASGNLIPQEKIVNLVNDIFGAGFDTVTTAISWSLMYLVTKPEIQRKIQKELDTVIGRERRPRLSDRPQLPYLEAFILETFRHSSFLPFTIPHSTTRDTTLNGFYIPKKCCVFVNQWQVNHDPELWEDPSEFRPERFLTADGTAINKPLSEKMMLFGMGKRRCIGEVLAKWEIFLFLAILLQQLEFSVPPGVKVDLTPIYGLTMKHARCEHVQARLRFSIN
notes: expressed in transfected cells
[1]
  Km: 0.72 µM
  Vmax: 1.6e-06 µmol/min/mg

B2: CYP1A1 (Homo sapiens) (protein)
chain: MLFPISMSATEFLLASVIFCLVFWVIRASRPQVPKGLKNPPGPWGWPLIGHMLTLGKNPHLALSRMSQQYGDVLQIRIGSTPVVVLSGLDTIRQALVRQGDDFKGRPDLYTFTLISNGQSMSFSPDSGPVWAARRRLAQNGLKSFSIASDPASSTSCYLEEHVSKEAEVLISTLQELMAGPGHFNPYRYVVVSVTNVICAICFGRRYDHNHQELLSLVNLNNNFGEVVGSGNPADFIPILRYLPNPSLNAFKDLNEKFYSFMQKMVKEHYKTFEKGHIRDITDSLIEHCQEKQLDENANVQLSDEKIINIVLDLFGAGFDTVTTAISWSLMYLVMNPRVQRKIQEELDTVIGRSRRPRLSDRSHLPYMEAFILETFRHSSFVPFTIPHSTTRDTSLKGFYIPKGRCVFVNQWQINHDQKLWVNPSEFLPERFLTPDGAIDKVLSEKVIIFGMGKRKCIGETIARWEVFLFLAILLQRVEFSVPLGVKVDMTPIYGLTMKHACCEHFQMQLRS
notes: as for B1
[2]
  Km: 0.25 µM
  Vmax: 5.6e-05 µmol/min/mg

B3: CYP2E1 (Homo sapiens) (protein)
chain: MSALGVTVALLVWAAFLLLVSMWRQVHSSWNLPPGPFPLPIIGNLFQLELKNIPKSFTRLAQRFGPVFTLYVGSQRMVVMHGYKAVKEALLDYKDEFSGRGDLPAFHAHRDRGIIFNNGPTWKDIRRFSLTTLRNYGMGKQGNESRIQREAHFLLEALRKTQGQPFDPTFLIGCAPCNVIADILFRKHFDYNDEKFLRLMYLFNENFHLLSTPWLQLYNNFPSFLHYLPGSHRKVIKNVAEVKEYVSERVKEHHQSLDPNCPRDLTDCLLVEMEKEKHSAERLYTMDGITVTVADLFFAGTETTSTTLRYGLLILMKYPEIEEKLHEEIDRVIGPSRIPAIKDRQEMPYMDAVVHEIQRFITLVPSNLPHEATRDTIFRGYLIPKGTVVVPTLDSVLYDNQEFPDPEKFKPEHFLNENGKFKYSDYFKPFSTGKRVCAGEGLARMELFLLLCAILQHFNLKPLVDPKDIDLSPIHIGFGCIPPRYKLCVIPRS
notes: as for B1
[3]
  Km: 88 µM
  Vmax: 0.00012 µmol/min/mg

B4: CYP2C8 (Homo sapiens) (protein)
chain: MEPFVVLVLCLSFMLLFSLWRQSCRRRKLPPGPTPLPIIGNMLQIDVKDICKSFTNFSKVYGPVFTVYFGMNPIVVFHGYEAVKEALIDNGEEFSGRGNSPISQRITKGLGIISSNGKRWKEIRRFSLTTLRNFGMGKRSIEDRVQEEAHCLVEELRKTKASPCDPTFILGCAPCNVICSVVFQKRFDYKDQNFLTLMKRFNENFRILNSPWIQVCNNFPLLIDCFPGTHNKVLKNVALTRSYIREKVKEHQASLDVNNPRDFIDCFLIKMEQEKDNQKSEFNIENLVGTVADLFVAGTETTSTTLRYGLLLLLKHPEVTAKVQEEIDHVIGRHRSPCMQDRSHMPYTDAVVHEIQRYSDLVPTGVPHAVTTDTKFRNYLIPKGTTIMALLTSVLHDDKEFPNPNIFDPGHFLDKNGNFKKSDYFMPFSAGKRICAGEGLARMELFLFLTTILQNFNLKSVDDLKNLNTTAVTKGIVSLPPSYQICFIPV
[4]
  Km: 7.4 µM
  Vmax: 9e-09 µmol/min/mg

Reference: patent publication US6756229B1, “Human cell line showing stable expression of cytochromes P450” (Takeda Chemical Industries, Ltd., priority 1999, dated 2004)
